Data: patent publication US20240059799A1 (Pfizer, published 2024)

T1: recombinant human TL1A (human, UniProt O95150 71-251)
T1 construct: Homotrimeric cytokine; biotinylated with Sulfo-NHS-biotin where captured for SPR, coated unlabelled in ELISA, soluble in bioassays; also called TNFSF15
T1 chain: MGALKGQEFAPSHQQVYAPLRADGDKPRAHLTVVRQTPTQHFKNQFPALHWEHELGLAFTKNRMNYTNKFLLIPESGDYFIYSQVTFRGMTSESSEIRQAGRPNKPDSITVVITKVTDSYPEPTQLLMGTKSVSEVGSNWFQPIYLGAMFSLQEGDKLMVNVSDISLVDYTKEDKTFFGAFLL

T2: human IL-23 (human, UniProt P29460 23-328; Q9NPF7 20-189)
T2 construct: Heterodimer p40/p19; Whole entries as named; also called IL-23 Human; recombinant human IL-23
T2 sequence 1: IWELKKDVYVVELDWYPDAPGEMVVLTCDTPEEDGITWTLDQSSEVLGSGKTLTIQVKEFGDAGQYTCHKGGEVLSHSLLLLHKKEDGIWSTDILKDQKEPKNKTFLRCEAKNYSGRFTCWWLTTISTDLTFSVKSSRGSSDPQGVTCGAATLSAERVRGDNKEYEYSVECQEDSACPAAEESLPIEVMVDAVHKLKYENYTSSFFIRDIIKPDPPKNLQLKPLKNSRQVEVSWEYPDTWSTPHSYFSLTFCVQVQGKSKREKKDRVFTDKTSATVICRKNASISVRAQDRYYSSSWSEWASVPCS
T2 sequence 2: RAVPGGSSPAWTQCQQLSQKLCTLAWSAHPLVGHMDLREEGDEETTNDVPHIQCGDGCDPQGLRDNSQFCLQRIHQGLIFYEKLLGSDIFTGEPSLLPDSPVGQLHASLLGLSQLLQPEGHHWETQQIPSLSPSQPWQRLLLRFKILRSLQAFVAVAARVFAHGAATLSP

T3: human IL-12 (human, UniProt P29460 23-328; P29459 23-219)
T3 sequence 1: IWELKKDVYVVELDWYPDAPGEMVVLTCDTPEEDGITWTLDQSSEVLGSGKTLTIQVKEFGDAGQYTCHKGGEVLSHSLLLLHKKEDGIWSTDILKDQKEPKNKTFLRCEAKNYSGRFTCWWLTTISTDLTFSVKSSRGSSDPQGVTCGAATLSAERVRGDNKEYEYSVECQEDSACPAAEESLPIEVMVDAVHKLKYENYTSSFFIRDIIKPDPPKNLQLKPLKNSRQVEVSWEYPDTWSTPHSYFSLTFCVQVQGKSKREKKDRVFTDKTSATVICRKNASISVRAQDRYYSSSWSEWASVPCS
T3 sequence 2: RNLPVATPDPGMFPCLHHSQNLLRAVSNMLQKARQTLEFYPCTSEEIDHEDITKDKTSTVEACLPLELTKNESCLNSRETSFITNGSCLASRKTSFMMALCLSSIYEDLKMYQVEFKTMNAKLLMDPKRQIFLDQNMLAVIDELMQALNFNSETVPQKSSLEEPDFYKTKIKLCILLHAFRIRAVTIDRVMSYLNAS

T4: human IL-23 (human, UniProt P29460 23-328; Q9NPF7 20-189)
T4 sequence 1: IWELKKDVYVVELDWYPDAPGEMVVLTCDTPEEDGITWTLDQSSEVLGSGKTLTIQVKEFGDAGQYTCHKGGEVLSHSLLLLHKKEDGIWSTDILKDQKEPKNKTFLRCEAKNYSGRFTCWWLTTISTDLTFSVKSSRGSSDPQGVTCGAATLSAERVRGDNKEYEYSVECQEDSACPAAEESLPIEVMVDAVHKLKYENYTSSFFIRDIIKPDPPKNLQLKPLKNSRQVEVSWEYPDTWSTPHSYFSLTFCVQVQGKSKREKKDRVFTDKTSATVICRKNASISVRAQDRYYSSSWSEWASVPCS
T4 sequence 2: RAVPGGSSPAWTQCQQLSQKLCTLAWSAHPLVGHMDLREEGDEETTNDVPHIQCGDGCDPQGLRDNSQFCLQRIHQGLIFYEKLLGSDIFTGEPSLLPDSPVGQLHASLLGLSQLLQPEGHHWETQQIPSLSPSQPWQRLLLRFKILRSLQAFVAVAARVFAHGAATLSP


What was measured:
recombinant human TL1A = target: T1, recombinant human TL1A; assay: SPR 37 C, biotinylated human TL1A captured, bispecific injected
Experimental: (§1) SPR was utilized to determine if the affinity constants of each arm of the bispecific variants binding human IL-23, containing the p40 subunit, and human TL1A were the same for each bispecific approach. For the analysis of the p40 binding arm, kinetic assays were conducted at 37° C. using a collection rate of 10 Hz on a Biacore™ 8 K+ instrument (GE Healthcare). An anti-human IgG antibody (anti-human Fc, GE Healthcare, 22-0648-88) was amine coupled to all four flow cells of a carboxymethylated dextran coated sensor chip (GE Healthcare,) using the manufacturer's recommended protocol. […] For the analysis of the TL1A binding arm, kinetic assays were conducted at 37° C. using a collection rate of 10 Hz on a Biacore™ T200 instrument (GE Healthcare).

human IL-23 [1] = target: T2, human IL-23; assay: SPR, bispecific held on captured biotinylated human TL1A, then human IL-23 injected (simultaneous binding)
Experimental: SPR was used to determine if the bispecific variants could simultaneously bind TL1A and IL-23, containing the p40 domain. For this analysis, a semi-quantitative SPR method was developed using Biacore™ T200 (GE Healthcare) instrumentation. […] The bispecific was injected for 90 seconds at a concentration of 20 μg/m L, a flow rate of 50 μL/minute, and captured to a level of approximately 40-150 RU. Next, recombinant human IL-23 was injected for 60 seconds and a flow rate of 50 μL/minute at a concentration range of 0.37-15 nM.

human IL-23 [2] = target: T2, human IL-23; assay: SPR 37 C, bispecific captured by anti-human Fc, human IL-23 injected
Experimental: as §1

human IL-12 = target: T3, human IL-12; assay: cell-based or functional assay
human IL-23 [3] = target: T4, human IL-23; assay: cell-based or functional assay

Kd (recombinant human TL1A) [nM] | koff (recombinant human TL1A) [s⁻¹] | kon (recombinant human TL1A) [M⁻¹ s⁻¹] | Kd (human IL-23 [1]) [nM] | koff (human IL-23 [1]) [s⁻¹] | kon (human IL-23 [1]) [M⁻¹ s⁻¹] | Kd (human IL-23 [2]) [nM] | koff (human IL-23 [2]) [s⁻¹] | kon (human IL-23 [2]) [M⁻¹ s⁻¹] | KIT-225 STAT4 assay IL-12, Bioactivity relative to p40-0003 (human IL-12) [fold] | KIT-225 STAT4 assay IL-12 IC50 (human IL-12) [nM] | KIT-225 STAT3 assay IL-23, Bioactivity relative to p40-0003 (human IL-23 [3]) [fold] | KIT-225 STAT3 assay IL-23 IC50 (human IL-23 [3]) [nM] | Binder
0.253 | 5.52e-05 | 218000 | 0.0791 | 0.000519 | 6.56e+06 | 0.557 | 0.00115 | 2.07e+06 |  |  |  |  | p40TL1A-0033 (bispecific antibody, human IgG1, kappa, single cell, KiH, modified Fd, LS) heavy: EVQLVQSGAEVKKPGESLKISCKGSGYSFTTYWLGWVRQMPGKGLDWIGIMSPVDSDIRYSPSFQGQVTMSVDKSITTAYLQWNSLKASDTAMYYCARRRPGQGYFDFWGQGTLVTVSSASTKGPSVFPLAPSSKSTSGGTAALGCLVKDYFPEPVTVSWNSGALTSGVHTFPAVLQSSGLYSLSSVVTVPSSSLGTQTYICNVNHKPSNTKVDKKVEPKSCDKTHTCPPCPAPEAAGAPSVFLFPPKPKDTLMISRTPEVTCVVVDVSHEDPEVKFNWYVDGVEVHNAKTKPREEQYNSTYRVVSVLTVLHQDWLNGKEYKCKVSNKALPAPIEKTISKAKGQPREPQVCTLPPSREEMTKNQVSLWCLVKGFYPSDIAVEWESNGQPENNYKTTPPVLDSDGSFFLYSKLTVDKSRWQQGNVFSCSVLHEALHSHYTQKSLSLSPGK light: not shown chain 1: not shown chain 2: QVQLVQSGAEVKKPGASVKVSCKASGYDYTYYGISWVRQAPGQGLEWMGWISTYNTGTHYAPSLQGRVTMTTDTSTSTAYMELRSLRSDDTAVYYCARESYYGSGAFRGGMDVWGQGTTVTVSSASTKGPSVFPLAPSSKSTSGGTAALGCLVKDYFPEPVTVSWNSGALTSGVHTFPAVLQSSGLYSLSSVVTVPSSSLGTQTYICNVNHKPSNTKVDKKVEPKSC
0.254 | 6.15e-05 | 243000 | 0.0788 | 0.000546 | 6.93e+06 | 0.567 | 0.00109 | 1.92e+06 |  |  |  |  | p40TL1A-0032 (bispecific antibody, single cell, KiH, S1-S1rev, LS) heavy 1: EVQLVQSGAEVKKPGESLKISCKGSGYSFTTYWLGWVRQMPGKGLDWIGIMSPVDSDIRYSPSFQGQVTMSVDKSITTAYLQWNSLKASDTAMYYCARRRPGQGYFDFWGQGTLVTVSSASTKGPSVFPKAPSSKSTSGGTAALGCLVKDYFPEPVTVSWNSGALTSGVHTFPAVLQSSGLYSLSSSVTVPSSSLGTQTYICNVNHKPSNTKVDKKVEPKSCDKTHTCPPCPAPEAAGAPSVFLFPPKPKDTLMISRTPEVTCVVVDVSHEDPEVKFNWYVDGVEVHNAKTKPREEQYNSTYRVVSVLTVLHQDWLNGKEYKCKVSNKALPAPIEKTISKAKGQPREPQVCTLPPSREEMTKNQVSLWCLVKGFYPSDIAVEWESNGQPENNYKTTPPVLDSDGSFFLYSKLTVDKSRWQQGNVFSCSVLHEALHSHYTQKSLSLSPGK light 1: DIQMTQSPSSLSASVGDRVTITCRASQGISSWLAWYQQKPEKAPKSLIYAASSLQSGVPSRFSGSGSGTDFTLTISSLQPEDFATYYCQQYNIYPYTFGQGTKLEIKRTVAAPSVFIFPPSDEQLKSGTASVSCLLNNFYPREAKVQWKVDNALQSGNSQESVTEQDSKDSTYSLDSTLTLSKADYEKHKVYACEVTHQGLSSPVTKSFNRGEC heavy 2: QVQLVQSGAEVKKPGASVKVSCKASGYDYTYYGISWVRQAPGQGLEWMGWISTYNTGTHYAPSLQGRVTMTTDTSTSTAYMELRSLRSDDTAVYYCARESYYGSGAFRGGMDVWGQGTTVTVSSASTKGPSVFPEAPSSKSTSGGTAALGCLVKDYFPEPVTVSWNSGALTSGVHTFPAVLQSSGLYSLGSVVTVPSSSLGTQTYICNVNHKPSNTKVDKKVEPKSCDKTHTCPPCPAPEAAGAPSVFLFPPKPKDTLMISRTPEVTCVVVDVSHEDPEVKFNWYVDGVEVHNAKTKPREEQYNSTYRVVSVLTVLHQDWLNGKEYKCKVSNKALPAPIEKTISKAKGQPREPQVYTLPPCREEMTKNQVSLSCAVKGFYPSDIAVEWESNGQPENNYKTTPPVLDSDGSFFLVSKLTVDKSRWQQGNVFSCSVLHEALHSHYTQKSLSLSPGK light 2: not shown
 |  |  |  |  |  |  |  |  | 1 | 3.3 | 1 | 1.6 | p40-0003 antibody (antibody, human IgG1, kappa, V domains shown) VH: EVQLVQSGAEVKKPGESLKISCKGSGYSFTTYWLGWVRQMPGKGLDWIGIMSPVDSDIRYSPSFQGQVTMSVDKSITTAYLQWNSLKASDTAMYYCARRRPGQGYFDFWGQGTLVTVSS VL: DIQMTQSPSSLSASVGDRVTITCRASQGISSWLAWYQQKPEKAPKSLIYAASSLQSGVPSRFSGSGSGTDFTLTISSLQPEDFATYYCQQYNIYPYTFGQGTKLEIKR
